One assay deals with T1, CD4 protein (UniProt P01730 26-394).
T1 construct: also called soluble CD4
Briefly: ELISA: m1 phage captured by anti-M13 antibody, incubated with CD4, probed with anti-CD4 mAb.

In assay [1] the target is T2, gp120451 (gp120 of HIV-1 isolate 451) (HIV-1 isolate 451).
T2 construct: also called soluble monomeric gp120451
Briefly: quantitative ELISA (FIG. 7). For orientation: ELISA stands for enzyme-linked immunosorbent assay.

Values joined by “and” are separate entries in the source; they are usually repeats but may differ in a detail not shown here. Equal entries are not always repeated. Where no end group is shown, it is not given here.

B1: m1 peptide (phage-displayed) (peptide)
peptide: CDRRDLPQWAKREC
modifications: not fully specified (C-terminus); cysteine pairing not given here; also: fused to N terminus of phage pVIII (mosaic fth1 phage)
notes: Tested as a fusion to protein 8 on filamentous phage (fth1 vector, mosaic phage); 12mer flanked by constant cysteines; not shown: fd phage protein 8 (pVIII) display carrier at the peptide's C end
In the case of B1, in the assay with CD4 protein, the binding result is “no binding”. The Kd (as a rule, a measure of binding affinity in units of concentration) in assay [1] was 0.069 µM and 0.0692 µM.

The values are drawn from patent US20100247558A1 (RAMOT AT TEL AVIV UNIVERSITY, published 2010).
